Patent publication US20170334973A1 (INTEGRATED BIOTHERAPEUTICS, published 2017)
Residue numbers refer to the chain shown, from its start.

T1: SUDV VLP (Sudan virus (SUDV), UniProt Q66814 33-676)
T1 sequence: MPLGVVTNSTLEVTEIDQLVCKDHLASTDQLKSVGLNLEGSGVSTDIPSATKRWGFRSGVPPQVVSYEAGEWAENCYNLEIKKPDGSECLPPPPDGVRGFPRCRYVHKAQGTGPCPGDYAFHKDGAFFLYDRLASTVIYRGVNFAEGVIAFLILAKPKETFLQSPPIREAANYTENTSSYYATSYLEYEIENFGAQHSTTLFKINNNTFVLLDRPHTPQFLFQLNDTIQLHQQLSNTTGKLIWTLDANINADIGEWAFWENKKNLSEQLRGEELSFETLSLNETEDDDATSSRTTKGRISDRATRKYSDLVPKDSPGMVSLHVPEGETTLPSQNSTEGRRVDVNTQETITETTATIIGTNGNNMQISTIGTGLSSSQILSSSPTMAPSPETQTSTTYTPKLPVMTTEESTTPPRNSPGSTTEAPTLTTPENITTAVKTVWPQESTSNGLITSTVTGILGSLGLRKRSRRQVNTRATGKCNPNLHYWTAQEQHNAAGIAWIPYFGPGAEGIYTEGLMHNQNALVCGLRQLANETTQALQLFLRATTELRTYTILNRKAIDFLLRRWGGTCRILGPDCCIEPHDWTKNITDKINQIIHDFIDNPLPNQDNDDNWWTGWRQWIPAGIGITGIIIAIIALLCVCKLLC

T2: EBOV VLP (Ebola virus (EBOV), UniProt Q05320 33-676)
T2 sequence: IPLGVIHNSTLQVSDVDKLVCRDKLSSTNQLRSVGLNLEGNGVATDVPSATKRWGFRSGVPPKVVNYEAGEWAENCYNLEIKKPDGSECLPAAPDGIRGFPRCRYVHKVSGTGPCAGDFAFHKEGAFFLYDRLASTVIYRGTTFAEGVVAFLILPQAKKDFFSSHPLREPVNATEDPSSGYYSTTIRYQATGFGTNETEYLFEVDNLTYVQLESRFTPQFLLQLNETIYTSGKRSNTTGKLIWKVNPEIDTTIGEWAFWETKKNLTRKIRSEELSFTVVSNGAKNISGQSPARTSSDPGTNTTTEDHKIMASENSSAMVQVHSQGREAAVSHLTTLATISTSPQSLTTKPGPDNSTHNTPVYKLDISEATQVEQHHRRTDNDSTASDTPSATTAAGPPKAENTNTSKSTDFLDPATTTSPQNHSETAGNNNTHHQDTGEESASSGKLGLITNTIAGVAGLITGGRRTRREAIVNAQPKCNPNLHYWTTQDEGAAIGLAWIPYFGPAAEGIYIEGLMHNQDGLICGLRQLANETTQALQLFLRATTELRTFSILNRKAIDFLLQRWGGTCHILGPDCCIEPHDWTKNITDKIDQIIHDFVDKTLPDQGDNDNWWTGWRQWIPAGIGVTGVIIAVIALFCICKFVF

B1: FVM16 (antibody, V domains shown)
VH: EVQLVQSGAEVKRPGESLKISCRTSGYSFTSTWINWVRQMPGKGLEWLGSIYPGDSETKYNPSFQGHVTISADKSVTTTYLKWSSLKASDTATYYCVKGSETWGQGVLVTVSS
VL: KPMLTQPASLSASPGASASLTCTFSGGINVAGYNILWYQQKAGSPPRYLLRYKSDSTKDQGSGVPSRFSGSKDASANTGILRISGLQSEDEADYYCAIGHSSGWVFGGGTRLTVL
B2: FVM12 (antibody, V domains shown)
VH: EVQLVQSGAEVKRPGESLTISCKTSEYSFTGSWISWVRQMPGKGLEWMGSIYPGDSDTRYSPSFQGQVTISADKSVTTTYLKWSSLKASDTATYYCVKGSETWGQGVLVTVSS
VL: B1 VL with K1Q, M3V, P14L, A42P, Y48F, T57D, K58N, D59V, R67H, A76T
B3: FVM10 (antibody, V domains shown)
VH: QVQLVQSGAEVKRPGESLKISCQTSGYSFTDSWVAWVRQMPGKGLEWLGSIYPGDSETKYNPSFQGHVTISADKSISTAYLQWSSLKASDTATYYCAKGSETWGQGLRVTVSS
VL: B1 VL with K1Q, P2A, M3G, A42P, T57D, V105I
B4: FVM24 (antibody, V domains shown)
VH: EVQLVQSGAEVKRPGESLKISCKTSGYSFTDSWVAWVRQMPGKGLEWMGSIYPGDFQTRYNPSFQGHVTLSADKSISTTYLQWSSLKASDTATYYCVKGSETWGPGVLVTVSS
VL: B1 VL with K1S, P2S, M3G, A74V, E89D, V105I
B5: FVM32 (antibody, V domains shown)
VH: B2 VH with E1Q, T19R, E26G, G31D, I34V, S35A, M48L, V76I, T79A
VL: B1 VL with K1Q, M3V, S25N, N29T, A31P, N34D, A42S, A76T, V105I
B6: FVM23 (antibody, V domains shown)
VH: B2 VH with E1Q, E26G, R59T, S61N, Q67H, V76I, T77S, T79A, K82Q, S84T
VL: B1 VL with K1S, P2Y, M3E, W104L, V105I, G108A
B7: FVM19 (antibody, V domains shown)
VH: B1 VH with E1Q, K19T, R23K, S31D, T32S, I34V, N35A, E57D
VL: B1 VL with N34H, L36F, A42P, T57D, D59G, W104L, V105L
B8: FVM21 (antibody, V domains shown)
VH: EVQLVESGAEVKRPGESLTISCKTSGYSFTDSWVAWVRQMPGKGLEWLGSIYPGDSETKYNPSFQGHVTISADKSISTTYLQWSSLRASDTATYYCVKGADDWGPGLLVTVSS
VL: B1 VL with K1S, P2S, M3E, T57D, D59G, V105I
B9: FVM18 (antibody, V domains shown)
VH: B1 VH with E1Q, R23K, S31N, T32I, N35S
VL: NFMLTQPASLSASPGASASLTCTFSGGINVAGYHILWYQQKPGSPPRYLLRYKSDSEKDQGSGVPSRFSGSKDASANRGILRISGLQSEDEADYYCAIGHSSSGWVFGGGTRLTVL
B10: FVM31 (antibody, V domains shown)
VH: B2 VH with E1Q, E26G, G31D, I34V, S35A, M48L, T58A, S61N, Q67H, K74T
VL: B1 VL with V105I
B11: FVM35 (antibody, V domains shown)
VH: B1 VH with K19T, R23K, T32Y, N35T
VL: B1 VL with K1Q, M3V, V105I
B12: FVM33 (antibody, V domains shown)
VH: B1 VH with E1Q, R23K, G26R, T32S, N35G, E57D, K59R
VL: B1 VL with K1Q, M3V, V105I
B13: FVM41 (antibody, V domains shown)
VH: B1 VH with R23K, S31D, N35S, L48M
VL: B1 VL with K1E, P2T, M3V, L4V, W104V, V105L
B14: FVM22 (antibody, V domains shown)
VH: B3 VH with Q1E, K19T, Q23K, L107V, R108L
VL: B1 VL with K1S, P2S, M3G, V105I
B15: FVM26 (antibody, V domains shown)
VH: B1 VH with E1Q, K19R, R23K, S28T, S31D, T32Y, N35A, L48M, S85R
VL: B1 VL with K1Q, M3V, V105I
B16: FVM34 (antibody, V domains shown)
VH: B1 VH with Q6E, K19T, R23K, S31D, T32S, I34V, N35S, L48M
VL: B1 VL with K1Q, M3V, N34Y, L36H, A42P, T57D, D59H
B17: FVM37 (antibody, V domains shown)
VH: B1 VH with E1Q, R23K, S28R, T32S, N35S
VL: B1 VL with K1S, P2S, M3E, V105I
B18: FVM40 (antibody, V domains shown)
VH: B1 VH with K19T, R23K, S31D, T32S, N35S, L48M
VL: B1 VL with K1Q, V105I
B19: FVM38 (antibody, V domains shown)
VH: B1 VH with E1Q, K19T, R23K, S31D, T32S, N35G, L48M, G49A, G54D
VL: B1 VL with K1Q, M3V, V105I
B20: FVM28 (antibody, V domains shown)
VH: EVQLVQSGAEVKRPGESLKISCQTSGYRFTSSWISWVRQMPGKGLEWMGAIDPSDSETRYSPSFQGQVTISADKSISTAYLKWSSLKASDTATYYCVKGSETWGQGVLVTVSS
VL: B9 VL with N1Q, F2A, M3A
B21: FVM17 (antibody, V domains shown)
VH: B2 VH with E26G, G31D, T58A, S61N, Q67H, V76I, T77S
VL: QAVVTQPASLSASPGTSASLTCTFSGGINVAGYNILWYQQKPGSPPRFLLRYKSDSDNVQGSGVPSHFSGSKDASANTGILRISGLQSEDEADYYCAIGHSSGWIFGGGTRLTVL
B22: FVM25 (antibody, V domains shown)
VH: EVQLVHSGAEVKRPGESLTISCKTSGYTFTDYWIAWVRQMPGKGLEWMASIYPDDSDTRYNPSFQGHVTISADKSISTTYLQWSSLRASDTATYYCVKGSETWGQGVLVTVSS
VL: B21 VL with A2L, V4L, A76T, I105V

Target: T1, SUDV VLP
Assay: ELISA

Binder	EC50 [nM]
B1	1.43
B2	0.673
B3	0.687
B4	3.2
B5	0.187
B6	0.353
B7	5.4
B8	0.373
B9	1.08
B10	0.193
B11	0.14
B12	0.08
B13	0.32
B14	0.173
B15	0.153
B16	0.227
B17	0.127
B18	0.113
B19	0.147
B20	0.58
B21	1.43
B22	0.96

Target: T2, EBOV VLP
Assay: ELISA

Binder	EC50 [nM]
B1	0.655
B2	0.622
B3	0.653
B4	0.513
B5	0.66
B6	0.367
B7	0.967
B8	0.32
B9	1.03
B10	0.32
B11	0.233
B12	0.173
B13	0.36
B14	0.253
B15	0.26
B16	0.193
B17	0.227
B18	0.173
B19	0.253
B20	0.593
B21	0.767
B22	0.473
